The target in one data set is T1, CYP6Z2 (AgCYP6Z2) (Anopheles gambiae, UniProt A8I285).
T1 construct: with NADPH--cytochrome P450 reductase
T1 sequence (A8I285 1-492): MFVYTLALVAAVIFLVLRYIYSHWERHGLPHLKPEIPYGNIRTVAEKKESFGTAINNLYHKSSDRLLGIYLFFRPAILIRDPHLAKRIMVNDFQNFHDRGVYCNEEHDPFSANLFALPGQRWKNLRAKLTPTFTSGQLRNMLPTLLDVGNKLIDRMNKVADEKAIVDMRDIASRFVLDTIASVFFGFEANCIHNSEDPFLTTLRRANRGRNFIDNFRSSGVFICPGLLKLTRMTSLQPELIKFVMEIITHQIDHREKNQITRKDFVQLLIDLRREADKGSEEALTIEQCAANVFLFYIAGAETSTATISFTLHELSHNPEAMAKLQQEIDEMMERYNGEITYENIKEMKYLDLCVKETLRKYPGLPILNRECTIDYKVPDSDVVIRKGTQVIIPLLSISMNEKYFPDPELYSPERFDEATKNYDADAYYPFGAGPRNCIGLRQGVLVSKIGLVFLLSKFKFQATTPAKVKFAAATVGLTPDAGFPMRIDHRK
T1 sequence (Q86QH5 1-679 partner): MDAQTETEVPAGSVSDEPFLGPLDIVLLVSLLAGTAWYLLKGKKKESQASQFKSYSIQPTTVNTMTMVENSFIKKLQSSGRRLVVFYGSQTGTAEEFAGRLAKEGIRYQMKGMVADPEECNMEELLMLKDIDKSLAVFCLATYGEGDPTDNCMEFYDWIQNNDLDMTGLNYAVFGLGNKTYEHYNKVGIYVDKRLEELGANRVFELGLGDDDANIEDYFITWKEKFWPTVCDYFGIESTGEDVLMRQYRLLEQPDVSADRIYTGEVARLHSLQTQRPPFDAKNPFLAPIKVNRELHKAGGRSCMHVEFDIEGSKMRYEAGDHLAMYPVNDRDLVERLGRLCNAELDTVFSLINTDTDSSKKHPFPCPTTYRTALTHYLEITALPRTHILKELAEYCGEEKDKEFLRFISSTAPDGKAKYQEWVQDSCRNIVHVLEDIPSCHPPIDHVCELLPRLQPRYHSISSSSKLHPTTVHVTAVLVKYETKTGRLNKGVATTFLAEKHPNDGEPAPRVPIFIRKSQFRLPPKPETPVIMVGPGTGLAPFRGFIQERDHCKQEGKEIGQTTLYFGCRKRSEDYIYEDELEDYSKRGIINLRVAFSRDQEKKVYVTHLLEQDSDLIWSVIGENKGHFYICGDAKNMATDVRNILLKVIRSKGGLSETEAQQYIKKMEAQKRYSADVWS
Description: reverse-phase HPLC, E. coli membranes. It is filed as biochemical. As to conditions: 10 μM substrate, 0.1 mM NADPH with regeneration system, 5 mM MgCl2, 30°C.

Substrate in data set [1]: O=c1ccc2nc3ccc(OCc4ccccc4)cc3oc-2c1
The data set is described as follows: resorufin fluorescence, yeast microsomes. The format is biochemical, Aedes aegypti. The following applies: apparent, 0.1 mM NADPH with regeneration system, 0.1 M phosphate pH 7.4, 30°C, 15 min. The text has this:
(§1) resorufin fluorescence, yeast microsomes on CYP6Z8 (W(AeR)-CYP6Z8 microsomes; CYP6Z8v1)

Substrate in data set [2]: CCOc1ccc2nc3ccc(=O)cc-3oc2c1
The data set is described as follows: resorufin fluorescence, yeast microsomes. The format is biochemical, Aedes aegypti. As to conditions: apparent, 0.1 mM NADPH with regeneration system, 0.1 M phosphate pH 7.4, 30°C, 15 min.
Text: as §1

Substrate in data set [3]: CCCCCOc1ccc2nc3ccc(=O)cc-3oc2c1
Description: resorufin fluorescence, yeast microsomes. It is filed as biochemical, Aedes aegypti. As to conditions: apparent, 0.1 mM NADPH with regeneration system, 0.1 M phosphate pH 7.4, 30°C, 15 min.
Text: as §1

Substrate in data set [4]: OCc1cccc(Oc2ccccc2)c1
The data set is described as follows: reverse-phase HPLC, yeast microsomes. It is filed as biochemical, Aedes aegypti. The following applies: 0.1 mM NADPH with regeneration system, 5 mM MgCl2, 30°C.

Substrate in data set [5]: CCOc1ccc2ccc(=O)oc2c1
Description: 7-hydroxycoumarin fluorescence (O-de-ethylation), yeast microsomes. The format is biochemical, Aedes aegypti. As to conditions: apparent, 0.1 mM NADPH with regeneration system, 0.1 M phosphate pH 7.4, 30°C, 15 min. The text has this:
7-hydroxycoumarin fluorescence (O-de-ethylation), yeast microsomes on CYP6Z8 (W(AeR)-CYP6Z8 microsomes; CYP6Z8v1)

For the molecule `OCc1cccc(Oc2ccccc2)c1` [PBAlc], the “reverse-phase HPLC, E. coli membranes” value at CYP6Z2 (AgCYP6Z2) was “demonstrated the ability of CYP6Z2 to metabolize both PBAlc and PBAld”.
Still for that read-out and setting: for `O=Cc1cccc(Oc2ccccc2)c1` [PBAld] the value was “demonstrated the ability of CYP6Z2 to metabolize both PBAlc and PBAld”.

B1: CYP6Z8 (W(AeR)-CYP6Z8 microsomes; CYP6Z8v1) (Aedes aegypti) (protein)
chain: MFIYTFALFWLAVAFAIRYIYSYWDRNGLPSIKPHIPYGNLKTVANRTESFGVATCDLYWKSKDRLVGIYLFFRPAVLIRDAHLAQQIMTTDFSHFHDRGVFCNEEVDPFSANLFALAGKRWRNLRNKFTPLFTGGQLRCMMPTILNVGHKLQNVLEPAAKKQEVLEIRELVSRCVLDIIASVFFGFEANCINDPNDAFIQNLRELQYDGFFNNLRAAATFICPELLKLTRISSLSPEMIRFVTDIVTKQIEHREKNNVTRKDFIQLLIDLRREDANNNEATLGLEECAANVFLFYVAGSDTSTSAVAFTLHELTQNVETMEKLQTEIDEMLVKTSGELTYDGIKEMSYLDLCVKETLRKYPGLAILNRECTKSYAVPNSNIVLKKGTQVVIPLLAYGMDEKYFPEPDRYLPERFDKSTKNYDEKAFYPFGEGPRNCIAFRMGVMVSKICLVLLLSRFNFEATRGPKINFTPSTVALLPKGGIPVKISIR
notes: full-length, no protein modification; codon-optimised gene in S. cerevisiae W(AeR) with Ae. aegypti CPR integrated; microsomes; with NADPH--cytochrome P450 reductase
For B1, the Michaelis-Menten constant (Km) (commonly the substrate concentration at which the rate is half of its maximum) in data set [1] came out at 0.13 ± 0.02 µM; in data set [2], 2.39 ± 0.28 µM; in data set [3] it was 13.96 ± 3.14 µM; in data set [4] it was 15.1 ± 2.9 µM; in data set [5], 5.90 ± 0.90 µM. Further, the kcat – broadly, the maximal rate divided by the concentration of active sites – in data set [1] stood at 0.00162 ± 3.3e-05 s⁻¹; in data set [2], 0.0198 ± 0.00083 s⁻¹; in data set [3] it was 0.00217 ± 0.00017 s⁻¹; in data set [4] it was 0.011 ± 0.0005 s⁻¹; in data set [5], 0.0163 ± 0.00067 s⁻¹.

Values taken from PMC3778711, “The central role of mosquito cytochrome P450 CYP6Zs in insecticide detoxification revealed by functional expression and structural modelling” (Biochemical Journal, 2013).
